Experiment [1] deals with truncated human CD163 ECD SRCR domain 1-5 fragment with C-terminus histidine tag (HEK293-6E) (human) (UniProt Q86VB7). The experiment can be described thus: binding titration on truncated huCD163 SRCR 1-5.
The target is the same in experiment [2]. The experiment in a line: ratio of EC50 on huCD163 SRCR 1-5 to EC50 on huCD163 ECD.
Experiment [3] deals with human CD163 ECD with a C-terminal 8 histidine tag (HEK293-6E) (human) (UniProt Q86VB7). The experiment in a line: binding titration on recombinant huCD163 ECD.
human CD163 ECD with a C-terminal 8 histidine tag (HEK293-6E) (human), sequence (Q86VB7 other isoform, or with tags, fused parts or gaps limits assumed): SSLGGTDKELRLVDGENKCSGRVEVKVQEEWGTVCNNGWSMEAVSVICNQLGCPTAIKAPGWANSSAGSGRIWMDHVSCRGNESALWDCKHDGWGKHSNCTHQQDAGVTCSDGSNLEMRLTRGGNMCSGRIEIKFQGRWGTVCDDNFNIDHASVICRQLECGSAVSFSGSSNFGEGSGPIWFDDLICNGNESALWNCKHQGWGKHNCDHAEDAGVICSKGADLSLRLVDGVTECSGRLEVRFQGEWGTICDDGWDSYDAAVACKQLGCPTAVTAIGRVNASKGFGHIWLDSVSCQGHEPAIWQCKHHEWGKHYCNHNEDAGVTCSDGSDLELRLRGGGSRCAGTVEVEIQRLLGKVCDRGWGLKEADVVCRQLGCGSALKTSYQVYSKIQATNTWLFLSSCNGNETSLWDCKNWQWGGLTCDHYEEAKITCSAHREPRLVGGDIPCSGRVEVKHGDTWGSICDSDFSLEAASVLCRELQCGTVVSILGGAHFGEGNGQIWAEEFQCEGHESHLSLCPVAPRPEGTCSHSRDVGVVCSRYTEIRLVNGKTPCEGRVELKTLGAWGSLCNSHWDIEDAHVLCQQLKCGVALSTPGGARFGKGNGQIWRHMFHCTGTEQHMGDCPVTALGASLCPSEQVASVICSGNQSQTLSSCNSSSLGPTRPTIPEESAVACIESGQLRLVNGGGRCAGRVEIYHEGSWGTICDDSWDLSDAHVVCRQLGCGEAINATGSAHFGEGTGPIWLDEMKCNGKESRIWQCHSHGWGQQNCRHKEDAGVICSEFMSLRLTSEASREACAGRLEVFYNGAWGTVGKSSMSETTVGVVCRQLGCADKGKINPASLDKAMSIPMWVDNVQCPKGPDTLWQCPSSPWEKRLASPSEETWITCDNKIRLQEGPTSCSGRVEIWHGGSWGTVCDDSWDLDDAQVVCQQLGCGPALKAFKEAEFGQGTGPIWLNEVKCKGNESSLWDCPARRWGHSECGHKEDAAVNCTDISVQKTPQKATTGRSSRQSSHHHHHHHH
Experiment [4] concerns the target human CD163 expressed on human myeloid cells (M2c macrophages, M2 macrophages, in vitro MDSCs) (human) (UniProt Q86VB7). The experiment in a line: flow cytometry, APC-labelled anti-huCD163 on M2c macrophages pre-treated with 200 ug/mL goat control polyclonal antibody.
Experiment [5] has as its target purified recombinant human CD163 protein used for SPR (human) (UniProt Q86VB7). The experiment can be described thus: SPR (Biacore T200), CD163 amine-coupled to chip, antibody as analyte, EDTA buffer. (In general: SPR reads the build-up and loss of mass on a sensor chip optically.)
For experiment [6] the target is unchanged. The experiment in a line: SPR (Biacore T200), CD163 amine-coupled to chip, antibody as analyte, calcium-containing buffer.
The target of experiment [7] is recombinant murine CD163 (R&D Systems, No. 7435-CD-050) (murine) (UniProt Q2VLH6). The experiment in a line: ELISA, plate coated with 5 ug/mL recombinant murine CD163, A450. A general note: In an ELISA, binding on a coated surface is turned into a signal by an enzyme label.
For experiment [8], the target named is human CD163 expressed on human myeloid cells (M2c macrophages, M2 macrophages, in vitro MDSCs) (human) (UniProt Q86VB7). The experiment in a line: flow cytometry, unconjugated anti-CD163 (MAB1607) with labelled secondary antibody on untreated M2c macrophages. A general note: Flow cytometry measures light scatter and fluorescence of single cells or particles in a stream.
human CD163 expressed on human myeloid cells (M2c macrophages, M2 macrophages, in vitro MDSCs) (human), sequence (Q86VB7 42-1114, tags or fused parts left off): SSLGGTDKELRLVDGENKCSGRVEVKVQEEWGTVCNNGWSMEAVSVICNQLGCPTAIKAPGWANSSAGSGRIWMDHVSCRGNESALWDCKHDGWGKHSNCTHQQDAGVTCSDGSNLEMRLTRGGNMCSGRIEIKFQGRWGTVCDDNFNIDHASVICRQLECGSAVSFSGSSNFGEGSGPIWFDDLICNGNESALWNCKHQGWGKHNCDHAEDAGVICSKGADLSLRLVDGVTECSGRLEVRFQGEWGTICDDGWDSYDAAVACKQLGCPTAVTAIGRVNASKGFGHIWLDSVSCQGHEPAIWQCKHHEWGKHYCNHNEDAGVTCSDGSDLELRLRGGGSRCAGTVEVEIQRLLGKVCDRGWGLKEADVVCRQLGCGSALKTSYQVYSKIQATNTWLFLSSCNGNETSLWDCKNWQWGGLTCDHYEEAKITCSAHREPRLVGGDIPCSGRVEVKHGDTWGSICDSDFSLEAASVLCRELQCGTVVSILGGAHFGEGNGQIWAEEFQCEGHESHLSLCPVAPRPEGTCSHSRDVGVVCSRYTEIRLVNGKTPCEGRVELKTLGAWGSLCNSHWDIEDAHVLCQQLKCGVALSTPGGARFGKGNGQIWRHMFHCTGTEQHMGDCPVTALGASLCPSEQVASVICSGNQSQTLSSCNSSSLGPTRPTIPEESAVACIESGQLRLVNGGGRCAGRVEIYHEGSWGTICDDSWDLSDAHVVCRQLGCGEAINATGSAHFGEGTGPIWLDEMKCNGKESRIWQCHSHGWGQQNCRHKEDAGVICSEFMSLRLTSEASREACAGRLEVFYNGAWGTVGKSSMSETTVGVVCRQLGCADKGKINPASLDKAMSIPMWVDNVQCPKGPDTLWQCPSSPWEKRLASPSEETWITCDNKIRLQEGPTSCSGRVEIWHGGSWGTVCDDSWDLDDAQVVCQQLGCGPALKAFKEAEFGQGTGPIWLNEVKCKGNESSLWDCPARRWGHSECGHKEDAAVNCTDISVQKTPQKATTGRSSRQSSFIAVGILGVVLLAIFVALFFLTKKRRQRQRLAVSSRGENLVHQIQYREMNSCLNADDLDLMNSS

The target in experiment [9] is His-tagged recombinant human CD163 (R&D Systems, No. 1607-CD-050) (human) (UniProt Q86VB7). The experiment in a line: ELISA, plate coated with 5 ug/mL His-tagged recombinant human CD163, HRP anti-mouse IgG F(ab')2, A450.
His-tagged recombinant human CD163 (R&D Systems, No. 1607-CD-050) (human), sequence (Q86VB7 46-1050 limits assumed): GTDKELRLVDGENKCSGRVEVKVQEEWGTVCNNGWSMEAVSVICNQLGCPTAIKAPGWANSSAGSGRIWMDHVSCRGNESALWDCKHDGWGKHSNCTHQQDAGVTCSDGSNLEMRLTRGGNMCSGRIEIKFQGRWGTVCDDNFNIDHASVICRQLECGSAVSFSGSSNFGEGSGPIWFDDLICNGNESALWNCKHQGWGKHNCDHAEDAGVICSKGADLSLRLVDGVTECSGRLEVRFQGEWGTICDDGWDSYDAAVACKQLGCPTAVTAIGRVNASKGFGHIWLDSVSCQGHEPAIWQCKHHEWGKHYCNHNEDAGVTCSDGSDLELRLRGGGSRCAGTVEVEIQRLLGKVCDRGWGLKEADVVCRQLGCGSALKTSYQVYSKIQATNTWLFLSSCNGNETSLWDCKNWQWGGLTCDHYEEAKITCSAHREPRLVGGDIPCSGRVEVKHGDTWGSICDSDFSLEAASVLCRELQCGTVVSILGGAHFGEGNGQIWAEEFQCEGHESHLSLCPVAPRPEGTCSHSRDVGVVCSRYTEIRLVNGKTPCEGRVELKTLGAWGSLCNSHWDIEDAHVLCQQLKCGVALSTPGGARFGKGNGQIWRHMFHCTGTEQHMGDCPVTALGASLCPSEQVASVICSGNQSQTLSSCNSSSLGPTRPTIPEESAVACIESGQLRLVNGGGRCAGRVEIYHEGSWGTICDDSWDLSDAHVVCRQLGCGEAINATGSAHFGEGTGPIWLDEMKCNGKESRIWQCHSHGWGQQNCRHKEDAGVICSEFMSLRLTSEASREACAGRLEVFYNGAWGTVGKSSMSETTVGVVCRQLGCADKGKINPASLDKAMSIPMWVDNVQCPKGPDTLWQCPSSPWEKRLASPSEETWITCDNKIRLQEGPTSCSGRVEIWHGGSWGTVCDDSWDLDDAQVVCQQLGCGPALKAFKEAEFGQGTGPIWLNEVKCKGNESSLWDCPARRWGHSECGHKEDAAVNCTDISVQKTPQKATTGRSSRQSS

A word on the EC50: it is the concentration that produces a half-maximal response. Broadly, the EC50 (read off the curve) is the concentration needed to bring the measured effect to its halfway point. In general, Kd refers to the equilibrium constant for the complex coming apart. Broadly, the koff is the first-order rate constant of dissociation. As a reminder, the kon is the second-order rate constant of association.

purified recombinant human CD163 protein used for SPR (human), sequence (Q86VB7 46-1050 limits assumed): as above
truncated human CD163 ECD SRCR domain 1-5 fragment with C-terminus histidine tag (HEK293-6E) (human), sequence (Q86VB7 42-578 limits assumed): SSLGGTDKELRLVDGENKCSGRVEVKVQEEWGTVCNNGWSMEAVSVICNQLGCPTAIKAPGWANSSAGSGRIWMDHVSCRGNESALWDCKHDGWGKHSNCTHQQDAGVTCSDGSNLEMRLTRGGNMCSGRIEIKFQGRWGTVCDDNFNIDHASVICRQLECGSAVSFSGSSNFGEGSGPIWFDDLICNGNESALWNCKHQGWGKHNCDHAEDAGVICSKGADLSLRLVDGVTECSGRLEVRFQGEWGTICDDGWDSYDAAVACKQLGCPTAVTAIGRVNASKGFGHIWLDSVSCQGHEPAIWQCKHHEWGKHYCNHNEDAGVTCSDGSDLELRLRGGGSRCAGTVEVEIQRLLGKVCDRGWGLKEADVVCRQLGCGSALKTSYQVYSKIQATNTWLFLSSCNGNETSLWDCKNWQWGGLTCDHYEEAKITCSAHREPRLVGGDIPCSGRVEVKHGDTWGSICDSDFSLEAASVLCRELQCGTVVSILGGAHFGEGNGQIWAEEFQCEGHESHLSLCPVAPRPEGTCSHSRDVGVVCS

In the case of 215927 (antibody), the EC50 was 0.02 nM in experiment [1] and 0.017 nM in experiment [3]. The Ratio SRCR 1-5/ECD (EC50) in experiment [2] worked out at 1.17.

“APC-labeled anti-huCD163 antibody (R&D Systems, #FAB1607A)”: the concentration for a half-maximal effect (EC50 (read off the curve)) in experiment [4] is 10 nM.

For the substance EDHu-1 (antibody), the results for the EC50 in experiment [1] and in [3] were 0.05 nM and 0.052 nM, respectively. Moreover, the Ratio SRCR 1-5/ECD (EC50) in [2] stood at 0.96.

In the case of RM3/1 (antibody), the EC50 in experiment [3] turned out to be 0.061 nM.

For anti-CD163 clone GHI/61 (antibody), in [5], the Kd was 12 nM, the off-rate (koff) stood at 0.000178 s⁻¹ and the association rate constant (kon) worked out at 14800 M⁻¹ s⁻¹. Besides, in experiment [6], the Kd was found to be 63 nM, the off-rate (koff) came to 0.000467 s⁻¹ and the kon amounted to 7320 M⁻¹ s⁻¹.

Turning to “commercially available rat anti-muCD163 antibody (Thermo Fisher Scientific #14-1631-82)”, the EC50 (read off the curve) in [7] is 0.02 nM.

As to “control anti-huCD163 antibody, murine IgG1 (R&D Systems, #MAB1607)”, the EC50 (read off the curve) came out at 3 nM in [8] and 0.01 nM in experiment [9].

These data come from US20210253733A1.
